Experimental data: patent US20260008830A1 (FUNDACI CENTRE DE REGULACI GEN MICA, published 2026)

T1: IL-10 receptors R1 and R2 on HEK-Blue IL-10 reporter cells (UniProt Q13651 22-578; Q08334 20-325, limits assumed)
T1 sequence (looked up) 1: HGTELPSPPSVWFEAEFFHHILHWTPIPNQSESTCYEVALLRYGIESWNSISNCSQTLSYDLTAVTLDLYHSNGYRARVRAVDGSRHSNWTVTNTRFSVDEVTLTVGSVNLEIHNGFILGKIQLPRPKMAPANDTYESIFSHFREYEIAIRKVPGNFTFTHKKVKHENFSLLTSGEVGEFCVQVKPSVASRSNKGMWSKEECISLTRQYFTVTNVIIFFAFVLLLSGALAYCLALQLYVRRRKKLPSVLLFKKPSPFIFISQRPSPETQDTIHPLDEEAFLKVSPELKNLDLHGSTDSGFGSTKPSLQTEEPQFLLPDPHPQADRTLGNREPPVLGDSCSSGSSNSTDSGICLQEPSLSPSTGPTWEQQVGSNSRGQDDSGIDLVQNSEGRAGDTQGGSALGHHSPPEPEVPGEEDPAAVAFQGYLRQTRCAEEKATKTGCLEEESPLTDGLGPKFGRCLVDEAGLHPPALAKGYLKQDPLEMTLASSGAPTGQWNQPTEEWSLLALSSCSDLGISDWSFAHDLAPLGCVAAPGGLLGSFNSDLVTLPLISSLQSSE
T1 sequence (looked up) 2: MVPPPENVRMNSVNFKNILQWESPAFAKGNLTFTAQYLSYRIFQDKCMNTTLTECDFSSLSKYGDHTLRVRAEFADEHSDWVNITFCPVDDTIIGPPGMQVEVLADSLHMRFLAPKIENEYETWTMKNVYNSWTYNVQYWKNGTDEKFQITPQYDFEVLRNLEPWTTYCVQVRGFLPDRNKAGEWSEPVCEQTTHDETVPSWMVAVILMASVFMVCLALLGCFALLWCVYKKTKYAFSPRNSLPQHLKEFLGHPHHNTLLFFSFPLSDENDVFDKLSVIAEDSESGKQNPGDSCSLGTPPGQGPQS

T2: IFN-gamma receptor on HEK-Dual cells (Human IFN-γ SEAP/Luciferase Reporter Cells, hkd-ifng)
T2 sequence (P15260 whole entry, looked up): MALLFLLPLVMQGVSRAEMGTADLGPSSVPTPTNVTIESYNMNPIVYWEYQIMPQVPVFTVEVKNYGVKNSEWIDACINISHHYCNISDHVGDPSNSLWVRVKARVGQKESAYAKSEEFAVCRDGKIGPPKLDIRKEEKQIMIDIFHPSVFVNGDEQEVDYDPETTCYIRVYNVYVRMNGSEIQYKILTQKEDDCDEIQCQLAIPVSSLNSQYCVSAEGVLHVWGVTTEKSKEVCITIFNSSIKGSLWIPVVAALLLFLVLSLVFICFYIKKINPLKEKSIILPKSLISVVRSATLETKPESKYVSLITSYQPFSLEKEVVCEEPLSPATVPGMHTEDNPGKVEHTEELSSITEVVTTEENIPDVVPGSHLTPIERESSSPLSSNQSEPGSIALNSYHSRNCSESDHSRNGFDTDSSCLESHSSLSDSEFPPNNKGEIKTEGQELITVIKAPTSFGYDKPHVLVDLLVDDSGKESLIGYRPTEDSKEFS
T2 sequence (P38484 whole entry, looked up): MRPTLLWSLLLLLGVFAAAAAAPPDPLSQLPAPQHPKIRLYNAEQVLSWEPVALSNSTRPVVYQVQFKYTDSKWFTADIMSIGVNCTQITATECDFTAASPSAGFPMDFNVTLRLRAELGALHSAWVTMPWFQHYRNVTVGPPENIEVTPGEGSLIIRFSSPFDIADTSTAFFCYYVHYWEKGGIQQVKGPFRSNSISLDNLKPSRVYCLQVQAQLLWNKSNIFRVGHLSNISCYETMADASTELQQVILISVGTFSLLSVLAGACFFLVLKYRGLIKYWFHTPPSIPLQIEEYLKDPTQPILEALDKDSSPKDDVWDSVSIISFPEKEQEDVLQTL

B1: MutSC1_controlcenter_21 (ligand)
chain: KSKAVEQVKNAFNKLQEKGIYKAMSEFDIFINYIEAYMTMNFGGLDYLPNMLRDLRDAFSRVKTFFQMKDQLDNLLLKESLLEDFKGYLGCQALSEMIQFYLEEVMPQAENQDPDIKAHVNSLGENLKTLRLRLRRCHRFLPCENKSKAVEQVKNAFNKLQEKGIYKAMSEFDIFINYIEAYMTMNFGGLDYLPNMLRDLRDAFSRVKTFFQMKDQLDNLLLKESLLEDFKGYLGCQALSEMIQFYLEEVMPQAENQDPDIKAHVNSLGENLKTLRLRLRRCHFLPCEN
B2: ORKIFNg-002 (Foldikine-IFNG, single chain dimeric IFN gamma) (ligand)
chain: GSQDPYVKEAENLKKYFNAGHSDVADNGTLFLGILKNWKEESDRKIMQSQIVSFYFKLFKNFKDDQSIQKSVETIKEDMNVKFFNSNKKKRDDFEKLTNYSVTDLNVQRKAIHELIQVMASKPHPGQLWAYVKEAENLKKYFNAGHSDVADNGTLFLGILKNWKEESDRKIMQSQIVSFYFKLFKNFKDDQSIQKSVETIKEDMNVKFFNSNKKKRDDFEKLTNYSVTDLNVQRKAIHELIQVMAELSPAA

What was measured:
[1] = target: T1, IL-10 receptors R1 and R2 on HEK-Blue …; test: cell-based or functional assay
[2] = target: T2, IFN-gamma receptor on HEK-Dual cells …; test: cell-based or functional assay

| Binder | activation of HEK blue cells, apparent KD fit (drop against MutSC1) [1] | EC50 (HEK Dual cells responding to IFNγ) [2] |
| --- | --- | --- |
| B1 | ~2.5 fold |  |
| B2 |  | 32.8 pM |
